Measured values reported in PMC4865400.

Key:
[1] = target: toxin-binding region from T. ni cadherin (TnCAD-FL) (Trichoplusia ni); assay: BLI
[2] = target: SH2 domain of ABL1 kinase fused to the 434 phage cI repressor (UniProt P00519); assay: two-hybrid

Substance	Kd [1] [mM]	fold transcriptional activation [2] [fold]
wild-type Cry1Ac, trypsin-activated (from UniProt P05068 1-1178) (natural protein)	> 1	
wild-type HA4 monobody fused to RpoZ (designed binder)		> 200
